Experiment in all cases: competitive binding assay (PROMEGA-GLO 2)
One experiment addresses T1, caspase-2 (UniProt P42575 170-325; P42575 334-452, limits assumed).
T1 construct: also called recombinant caspase-2
T1 sequence (looked up) 1: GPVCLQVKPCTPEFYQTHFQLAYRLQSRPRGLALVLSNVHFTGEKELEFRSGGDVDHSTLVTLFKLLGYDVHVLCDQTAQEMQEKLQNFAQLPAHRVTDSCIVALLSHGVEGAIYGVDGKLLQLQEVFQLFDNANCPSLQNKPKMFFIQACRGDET
T1 sequence (looked up) 2: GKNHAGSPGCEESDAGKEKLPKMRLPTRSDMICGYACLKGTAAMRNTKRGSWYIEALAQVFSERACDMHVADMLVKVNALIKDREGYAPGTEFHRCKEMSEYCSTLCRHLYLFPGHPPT

In another experiment the target is T2, caspase-3 (UniProt P42574 29-277, limits assumed).
T2 sequence (looked up): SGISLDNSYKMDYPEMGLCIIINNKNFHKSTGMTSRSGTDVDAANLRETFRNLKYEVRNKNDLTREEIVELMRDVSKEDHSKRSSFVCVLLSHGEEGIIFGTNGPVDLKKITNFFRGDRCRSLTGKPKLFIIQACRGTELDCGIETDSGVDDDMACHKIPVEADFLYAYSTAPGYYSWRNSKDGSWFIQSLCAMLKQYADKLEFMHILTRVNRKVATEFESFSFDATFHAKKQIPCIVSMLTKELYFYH

For a further experiment, the target named is T3, caspase-6 (UniProt P55212 24-179; P55212 194-293, limits assumed).
T3 sequence (looked up) 1: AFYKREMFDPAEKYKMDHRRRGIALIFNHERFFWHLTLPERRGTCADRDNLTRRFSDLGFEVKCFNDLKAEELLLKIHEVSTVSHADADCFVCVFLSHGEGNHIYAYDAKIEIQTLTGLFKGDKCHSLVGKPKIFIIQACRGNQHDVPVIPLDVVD
T3 sequence (looked up) 2: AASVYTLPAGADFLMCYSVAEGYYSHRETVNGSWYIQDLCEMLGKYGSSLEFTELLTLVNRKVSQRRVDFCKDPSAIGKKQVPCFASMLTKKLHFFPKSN

The Ki is the dissociation constant of the complex between target and ligand, obtained from inhibition or displacement. Read a high Ki as a looser hold on the target.

B1: Ac-YKPVD-CHO (SEQ ID NO: 1) (peptide)
peptide: Ac-YKPVD-aldehyde
SMILES: CC(=O)N[C@@H](Cc1ccc(O)cc1)C(=O)N[C@@H](CCCCN)C(=O)N1CCC[C@H]1C(=O)N[C@H](C(=O)N[C@H](C=O)CC(=O)O)C(C)C
notes: Designed to mimic the caspase-2 cleavage site of tau; also called parent pentapeptide; Tyr-Lys-Pro-Val-Asp
For B1, the Ki with caspase-2 came out at 0.2 µM; with caspase-3, 19.8 µM; with caspase-6, 184 µM.

(Values after patent publication US20140171373A1 (REGENTS OF THE UNIVERSITY OF MINNESOTA, published 2014).)
